Patent publication US20250304640A1 (ORIKINE BIO SL, published 2025)
Where a chain is given by its changes, count along the chain named. In names and notes the source's numbering stands.

How the values were obtained:
Assay in all cases: cell-based or functional assay
IL10RA = target: T1, IL10RA (UniProt Q13651 22-578, limits assumed)
T1 sequence (looked up): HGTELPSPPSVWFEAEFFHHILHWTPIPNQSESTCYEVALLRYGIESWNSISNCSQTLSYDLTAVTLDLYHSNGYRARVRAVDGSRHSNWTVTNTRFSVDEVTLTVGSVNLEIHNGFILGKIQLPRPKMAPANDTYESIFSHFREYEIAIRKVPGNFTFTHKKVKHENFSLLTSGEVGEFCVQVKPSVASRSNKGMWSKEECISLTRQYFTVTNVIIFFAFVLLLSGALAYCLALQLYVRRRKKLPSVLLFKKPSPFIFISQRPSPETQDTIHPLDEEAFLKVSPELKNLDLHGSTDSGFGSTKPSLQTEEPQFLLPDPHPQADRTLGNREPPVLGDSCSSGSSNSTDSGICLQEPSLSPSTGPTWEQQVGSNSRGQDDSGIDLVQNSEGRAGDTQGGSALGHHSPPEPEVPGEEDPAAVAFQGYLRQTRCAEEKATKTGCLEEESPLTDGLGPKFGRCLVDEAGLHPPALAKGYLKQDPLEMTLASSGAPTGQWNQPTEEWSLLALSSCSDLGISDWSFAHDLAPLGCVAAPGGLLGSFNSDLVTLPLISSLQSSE

IL10RB = target: T2, IL10RB (UniProt Q08334 20-325, limits assumed)
T2 sequence (looked up): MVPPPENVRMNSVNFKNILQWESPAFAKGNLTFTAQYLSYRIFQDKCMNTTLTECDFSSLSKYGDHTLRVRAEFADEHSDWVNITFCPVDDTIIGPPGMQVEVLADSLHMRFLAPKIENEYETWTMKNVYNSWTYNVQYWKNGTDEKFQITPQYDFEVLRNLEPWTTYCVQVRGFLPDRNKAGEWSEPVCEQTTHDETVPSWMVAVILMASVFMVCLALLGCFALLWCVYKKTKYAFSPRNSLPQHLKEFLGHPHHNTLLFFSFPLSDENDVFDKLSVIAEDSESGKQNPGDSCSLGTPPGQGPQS

[1] = target: T3, IL-10 receptor (IL-10R: IL10RA and IL10RB) on HEK-Blue IL-10 reporter cells (UniProt Q13651 22-578; Q08334 20-325, limits assumed)
T3 sequence (looked up) 1: T1 sequence (looked up)
T3 sequence (looked up) 2: T2 sequence (looked up)

B1: ORK10-003-HiBit (ligand)
chain: MTQSENSCTHFPGNLPNMLRDLRDAFSRVKTFFQMKDQLDNLLLKESLLEDFKGYLGCQALSEMIQFYLEEVMPQAENQDPDIKAHVNSLGENLKTLRLRLRRCHRFLPCENKSKAVEQVKNAFNKLQEKGIYKAMSEFDIFINYIEAYLYKTITPEFANMLRDLRDAFSRVKTFFQMKDQLDNLLLKESLLEDFKGYLGCQALSEMIQFYLEEVMPQAENQDPDIKAHVNSLGENLKTLRLRLRRCHRFLPCENKSKAVEQVKNAFNKLQEKGIYKAMSEFDIFINYIEAYMTMGGVSGWRLFKKIS
- EC-50, HEK-Blue IL-10 reporter cells (IL10RA): 9.44e-11
- EC-50, HEK-Blue IL-10 reporter cells (IL10RB): 9.53e-11

B2: ORK10-003-HiBit N92E (ligand)
chain: B1 chain with N231E
- EC-50, HEK-Blue IL-10 reporter cells (IL10RB): 1.19e-10

B3: Foldikine10_cut116-CSF1-HiBit (ligand)
chain: NKSKAVEQVKNAFNKLQEKGIYKAMSEFDIFINYIEAYMTMNNGGLDYLPNMLRDLRDAFSRVKTFFQMKDQLDNLLLKESLLEDFKGYLGCQALSEMIQFYLEEVMPQAENQDPDIKAHVNSLGENLKTLRLRLRRNHRFLPCENKSKAVEQVKNAFNKLQEKGIYKAMSEFDIFINYIEAYMTMNNGGLDYLPNMLRDLRDAFSRVKTFFQMKDQLDNLLLKESLLEDFKGYLGCQALSEMIQFYLEEVMPQAENQDPDIKAHVNSLGENLKTLRLRLRRNHRFLPCEGGGGGSGGSGGSGGSGGSGGSGGSGGSGGGEEVSEYCSHMIGSGHLQSLQRLIDSQMETSCQITFEFVDQEQLKDPVCYLKKAFLLVQDIMEDTMRFRDNTPNAIAIVQLQELSLRLKSCFTKDYEEHDKACVRTFYETPLQLLEKVKNVFNETKNLLDKDWNIFSKNCNNSFAECSSQDGGGVSGWRLFKKIS
- IL-10 EC-50, HEK-Blue IL-10 reporter cells [1]: 4.95e-10

B4: Foldikine10_cut116 (ligand)
chain: NKSKAVEQVKNAFNKLQEKGIYKAMSEFDIFINYIEAYMTMNNGGLDYLPNMLRDLRDAFSRVKTFFQMKDQLDNLLLKESLLEDFKGYLGCQALSEMIQFYLEEVMPQAENQDPDIKAHVNSLGENLKTLRLRLRRNHRFLPCENKSKAVEQVKNAFNKLQEKGIYKAMSEFDIFINYIEAYMTMNNGGLDYLPNMLRDLRDAFSRVKTFFQMKDQLDNLLLKESLLEDFKGYLGCQALSEMIQFYLEEVMPQAENQDPDIKAHVNSLGENLKTLRLRLRRNHRFLPCE
- IL-10 EC-50, HEK-Blue IL-10 reporter cells [1]: 2.41e-10
